In the supplement of paper PMC7877785:
± gives the uncertainty stated by the source.

Experiment: self-splicing fitness, log relative to wild type (ln ratio); higher = more splicing; Tetrahymena group I intron in knt gene, E. coli kanamycin selection, DiMSum; sequences stand for … in CUCUCU…GGAGGGAAAAGUUAUCAGGCAUGCACCUGGUAGCUAGUCUUUAAACCAAUAGAUUGCAUCGGUUUAAAAGGCAAGACCGUCAAAUUGCGGGAAAGGGGUCAACAGCCGUUCAGUACCAAGUCUCAGGGGAAACUUUGAGAUGGCCUUGCAAAGGGUAUGGUAAUAAGCUGACGGACAUGGUCCUAACCACGCAGCCAAGUCCUAAGUCAACAGAUCUUCUGUUGAUAUGGAUGCAGUUCACAGACUAAAUGUCGGUCGGGGAAGAUGUAUUCUUCUCAUAAGAUAUAGUCGGACCUCUCCUUAAUGGGAGCUAGCGGAUGAAGUGAUGCAACACUGGAGCCGCUGGGAACUAAUUUGUAUGCGAAAGUAUAUUGAUUAGUUUUGGAGUACUCGUGGUCG
Summary of the method: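 A randomised library covering all eight P1ex-region intron nucleotides was built with the intron in the knt kanamycin-resistance gene on pET-22b(+) and held in E. coli BL21(DE3). Cells were grown overnight at 37°C or 30°C on LB agar, with or without 25 μg/mL kanamycin, plus 100 μg/mL carbenicillin, 50 μM IPTG and 0.2% rhamnose, and pooled colonies were amplicon-sequenced on an Illumina HiSeq 2500. DiMSum fitness is the error-weighted combination of wild-type-normalised replicate fold changes, kanamycin versus none.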

| Sequence | self-splicing fitness (ln) (30 °C) | self-splicing fitness (ln) (37 °C) |
| --- | --- | --- |
| CACCAGCAAUAUUACGAGAG | -0.95 ± 0.054 | -0.673 ± 0.069 |
| CGGUAGCAAUAUUACGGGAC | -3.63 ± 0.47 | -4.61 ± 0.46 |
| GUAAAGCAAUAUUACGAUGC | -0.312 ± 0.11 | -0.105 ± 0.11 |
| UGUAAGCAAUAUUACGCUCU | 0.793 ± 0.47 | -0.974 ± 0.45 |
| GAACAGCAAUAUUACGACGU | -0.688 ± 0.064 | 0.167 ± 0.077 |
| CGAGAGCAAUAUUACGGAAC | -1.56 ± 0.44 | – |
| GACCAGCAAUAUUACGACAU | -0.634 ± 0.011 | -0.0858 ± 0.032 |
| UAGUAGCAAUAUUACGACCU | -0.902 ± 0.11 | 0.242 ± 0.11 |
| CGGGAGCAAUAUUACGAUGU | -2.47 ± 0.39 | -2.53 ± 0.39 |
| CGAAAGCAAUAUUACGGCAU | -2.26 ± 0.12 | -0.29 ± 0.089 |
| GGAAAGCAAUAUUACGUGUU | -2.76 ± 0.11 | -1.66 ± 0.12 |
| ACACAGCAAUAUUACGGCUA | -0.536 ± 0.071 | -0.218 ± 0.074 |
| AGAUAGCAAUAUUACGAUAC | -3.11 ± 0.26 | -0.943 ± 0.19 |
| AUCAAGCAAUAUUACGCCGG | -1.22 ± 0.19 | 0.522 ± 0.2 |
| CUCCAGCAAUAUUACGCUUC | -3.31 ± 0.24 | -2.27 ± 0.23 |
| UAAGAGCAAUAUUACGACUU | -2.79 ± 0.18 | -0.528 ± 0.15 |
| CUAAAGCAAUAUUACGGAUA | -3.45 ± 0.19 | -2.36 ± 0.2 |
| UCAAAGCAAUAUUACGUGAA | -1.42 ± 0.069 | -1.06 ± 0.1 |
| AGUAAGCAAUAUUACGCGAC | -3.46 ± 0.23 | -2.63 ± 0.25 |
| GUACAGCAAUAUUACGCCGU | -2.95 ± 0.21 | -1.06 ± 0.16 |
| UUCGAGCAAUAUUACGUAAG | -3.03 ± 0.36 | -3.24 ± 0.42 |
| CGUAAGCAAUAUUACGAUCG | -1.03 ± 0.11 | -0.0852 ± 0.13 |
| ACUUAGCAAUAUUACGCCAA | -3.19 ± 0.29 | -2.17 ± 0.28 |
| CGUCAGCAAUAUUACGCCGG | -1.69 ± 0.12 | -1.27 ± 0.17 |
| GGCCAGCAAUAUUACGCUUG | -4.13 ± 0.26 | -2.58 ± 0.2 |

| Sequence | self-splicing fitness (ln) (30 °C) | self-splicing fitness (ln) (37 °C) |
| --- | --- | --- |
| GUGGAGCAAUAUUACGCUUU | -3.84 ± 0.32 | -2.41 ± 0.27 |
| CGGGAGCAAUAUUACGAACG | -4.35 ± 0.24 | -3 ± 0.23 |
| AGAGAGCAAUAUUACGUGCU | – | -1.44 ± 0.28 |
| CCUAAGCAAUAUUACGUACC | -4.63 ± 0.46 | -2.75 ± 0.31 |
| AUUCAGCAAUAUUACGUCUA | -0.634 ± 0.11 | -0.557 ± 0.1 |
| CCACAGCAAUAUUACGUAAG | -0.731 ± 0.038 | 0.388 ± 0.061 |
| AGCCAGCAAUAUUACGGUAC | -2.97 ± 0.2 | -1.24 ± 0.13 |
| CAAGAGCAAUAUUACGCUCG | -2.16 ± 0.44 | -1.26 ± 0.41 |
| UUUGAGCAAUAUUACGGUGC | -2.74 ± 0.47 | -2.2 ± 0.33 |
| CGCCAGCAAUAUUACGGUAU | -2.65 ± 0.088 | -0.699 ± 0.1 |
| UUGUAGCAAUAUUACGAGGG | – | -1.87 ± 0.4 |
| CUUUAGCAAUAUUACGCAAC | -1.73 ± 0.24 | – |
| CGAAAGCAAUAUUACGUGUU | -4.1 ± 0.18 | -2.54 ± 0.17 |
| AUCAAGCAAUAUUACGAAUG | -3.16 ± 0.13 | -0.57 ± 0.1 |
| UUUGAGCAAUAUUACGAUGU | -3.05 ± 0.3 | -2.34 ± 0.39 |
| GCGGAGCAAUAUUACGGAUC | -0.472 ± 0.083 | -0.528 ± 0.17 |
| AGAGAGCAAUAUUACGUAAG | -3.25 ± 0.26 | -2.7 ± 0.36 |
| AACAAGCAAUAUUACGUCUG | -1.22 ± 0.058 | -0.709 ± 0.076 |
| GCCAAGCAAUAUUACGGUGU | -1.48 ± 0.049 | -0.507 ± 0.06 |
| ACGAAGCAAUAUUACGAUCG | -0.102 ± 0.073 | 0.139 ± 0.11 |
| UACUAGCAAUAUUACGAGCU | -2.4 ± 0.24 | – |
| GCCGAGCAAUAUUACGAAUC | -1.68 ± 0.11 | -0.92 ± 0.12 |
| UAUCAGCAAUAUUACGCCUA | 0.206 ± 0.11 | 0.701 ± 0.13 |
| GUUGAGCAAUAUUACGAUCC | -0.364 ± 0.16 | 0.0175 ± 0.28 |
